From the Immune Epitope Database (IEDB)
pKd: −log10 of the molar value.

Legend:
Assay in all cases: IEDB peptide-MHC binding, purified MHC/competitive/radioactivity; filed as Kd, often an IC50 or EC50 that approximates it; ≥ and ≤ were set here for values at or beyond the usual limits of such assays
HLA-A*02:06 = target: HLA-A*02:06
HLA-A*02:03 = target: HLA-A*02:03
HLA-A*02:02 = target: HLA-A*02:02
HLA-A*03:01 = target: HLA-A*03:01
HLA-A*33:01 = target: HLA-A*33:01
HLA-A*11:01 = target: HLA-A*11:01
HLA-A*68:01 = target: HLA-A*68:01
HLA-A*31:01 = target: HLA-A*31:01
[1] = source organism: Vaccinia virus WR
[2] = source organism: SARS coronavirus Tor2
[3] = source organism: Dengue virus 1 Brazil/97-11/1997
[4] = source organism: Dengue virus 2 Jamaica/1409/1983
[5] = source organism: Dengue virus 4 Philippines/H241/1956
[6] = source organism: Lymphocytic choriomeningitis virus (strain Armstrong)
[7] = source organism: Dengue virus 3 Martinique/1243/1999

AAITLVVISV
pKd (HLA-A*02:06; [1]): 7.57 | pKd (HLA-A*02:03; [1]): 6.61 | pKd (HLA-A*02:02; [1]): 6.30

ALAEHISDSI
pKd (HLA-A*02:06; [1]): 6.79 | pKd (HLA-A*02:03; [1]): 9.47 | pKd (HLA-A*02:02; [1]): 9.70

ALKAYFTAKI
pKd (HLA-A*02:06; [1]): 5.56 | pKd (HLA-A*02:03; [1]): 7.11 | pKd (HLA-A*02:02; [1]): 6.71

ALLFLMSFTI
pKd (HLA-A*02:06; [2]): 7.84 | pKd (HLA-A*02:03; [2]): 6.70 | pKd (HLA-A*02:02; [2]): 9.44

CAVIPFDDI
pKd (HLA-A*02:06; [1]): 5.94 | pKd (HLA-A*02:03; [1]): ≤ 5.00 | pKd (HLA-A*02:02; [1]): 4.80

CIVAAVIIM
pKd (HLA-A*02:06; [1]): ≤ 4.49 | pKd (HLA-A*02:03; [1]): 5.85 | pKd (HLA-A*02:02; [1]): 4.84

CTNDIYCDEI
pKd (HLA-A*02:06; [1]): 5.32 | pKd (HLA-A*02:03; [1]): 5.24 | pKd (HLA-A*02:02; [1]): 5.61

DAKRNSKSL
pKd (HLA-A*02:06; [1]): ≤ 4.11 | pKd (HLA-A*02:03; [1]): ≤ 4.30 | pKd (HLA-A*02:02; [1]): 4.86

DAMIHKTYI
pKd (HLA-A*02:06; [1]): 5.02 | pKd (HLA-A*02:03; [1]): 5.82 | pKd (HLA-A*02:02; [1]): 5.27

DTIAHINTL
pKd (HLA-A*02:06; [1]): 4.95 | pKd (HLA-A*02:03; [1]): 6.63 | pKd (HLA-A*02:02; [1]): 6.13

DVEKEKFVAT
pKd (HLA-A*02:06; [1]): ≤ 4.16 | pKd (HLA-A*02:03; [1]): ≤ 4.26 | pKd (HLA-A*02:02; [1]): ≤ 4.43

DVSLSAYII
pKd (HLA-A*02:06; [1]): 5.36 | pKd (HLA-A*02:03; [1]): 6.12 | pKd (HLA-A*02:02; [1]): 6.16

EIVSHLRAST
pKd (HLA-A*02:06; [1]): 4.90 | pKd (HLA-A*02:03; [1]): 5.55 | pKd (HLA-A*02:02; [1]): 5.29

ELSRLRYNL
pKd (HLA-A*02:06; [1]): 4.73 | pKd (HLA-A*02:03; [1]): 6.60 | pKd (HLA-A*02:02; [1]): 9.03

ELTSNCTRTT
pKd (HLA-A*02:06; [1]): 5.24 | pKd (HLA-A*02:03; [1]): 5.83 | pKd (HLA-A*02:02; [1]): 4.84

ELWARISSSL
pKd (HLA-A*02:06; [1]): 5.03 | pKd (HLA-A*02:03; [1]): 6.49 | pKd (HLA-A*02:02; [1]): 6.76

EMKYALINLV
pKd (HLA-A*02:06; [1]): 5.01 | pKd (HLA-A*02:03; [1]): 6.55 | pKd (HLA-A*02:02; [1]): 5.90

FIPIIYSKA
pKd (HLA-A*02:06; [1]): 7.02 | pKd (HLA-A*02:03; [1]): 8.74 | pKd (HLA-A*02:02; [1]): 9.26

FLFLAWIMLL
pKd (HLA-A*02:06; [2]): 6.00 | pKd (HLA-A*02:03; [2]): 7.25 | pKd (HLA-A*02:02; [2]): 7.73

FLLNKEMYL
pKd (HLA-A*02:06; [2]): 8.80 | pKd (HLA-A*02:03; [2]): 8.95 | pKd (HLA-A*02:02; [2]): 9.48

FLTSLLILV
pKd (HLA-A*02:06; [2]): 8.48 | pKd (HLA-A*02:03; [2]): 7.92 | pKd (HLA-A*02:02; [2]): 8.66

FQDGVFHTM
pKd (HLA-A*02:06; [3]): 7.86

FVLALYSPPL
pKd (HLA-A*02:06; [1]): 6.67 | pKd (HLA-A*02:03; [1]): 7.42 | pKd (HLA-A*02:02; [1]): 8.66

GLFGKGSLI
pKd (HLA-A*02:03; source organism: Dengue virus 1 Nauru/West Pac/1974): 7.89

GLFKTNTGTI
pKd (HLA-A*02:03; [4]): 7.34

GLILFVLAL
pKd (HLA-A*02:06; [1]): 5.11 | pKd (HLA-A*02:03; [1]): 6.34 | pKd (HLA-A*02:02; [1]): 6.89

GLSSRATWA
pKd (HLA-A*02:03; [5]): 7.43

GMVTLYLGV
pKd (HLA-A*02:03; [3]): 7.91

HNASDFYGL
pKd (HLA-A*02:06; [6]): ≤ 4.66 | pKd (HLA-A*02:03; [6]): ≤ 4.11 | pKd (HLA-A*02:02; [6]): 5.19

IAMLKSKNI
pKd (HLA-A*02:06; [1]): 4.97 | pKd (HLA-A*02:03; [1]): 6.07 | pKd (HLA-A*02:02; [1]): ≤ 4.42

IAVSVYGAIT
pKd (HLA-A*02:06; [1]): 4.84 | pKd (HLA-A*02:03; [1]): 5.03 | pKd (HLA-A*02:02; [1]): 5.10

ILSLETVKM
pKd (HLA-A*02:06; [1]): 6.55 | pKd (HLA-A*02:03; [1]): 7.93 | pKd (HLA-A*02:02; [1]): 8.32

IMAFILGII
pKd (HLA-A*02:06; [1]): 6.76 | pKd (HLA-A*02:03; [1]): 7.53 | pKd (HLA-A*02:02; [1]): 7.77

IMKDGRVLVV
pKd (HLA-A*02:03; source organism: Dengue virus 2 16681-PDK53): 8.22

ITMTTVYHI
pKd (HLA-A*02:06; [2]): 8.64 | pKd (HLA-A*02:03; [2]): 8.14 | pKd (HLA-A*02:02; [2]): 7.72

IVNCLSLSNL
pKd (HLA-A*02:06; [1]): 5.89 | pKd (HLA-A*02:03; [1]): 6.89 | pKd (HLA-A*02:02; [1]): 6.47

IVPEFAKQYV
pKd (HLA-A*02:06; [1]): 7.82 | pKd (HLA-A*02:03; [1]): 7.74 | pKd (HLA-A*02:02; [1]): 7.99

KQIANELNYI
pKd (HLA-A*02:06; [7]): 7.49

KTLTGEIGAV
pKd (HLA-A*02:06; [5]): 7.51

LLMLVTPSMT
pKd (HLA-A*02:03; [7]): 6.77

LQWIASAIV
pKd (HLA-A*02:06; [7]): 8.43

MAILCVPNAV
pKd (HLA-A*02:06; [4]): 8.27

PLNEGIMAI
pKd (HLA-A*02:03; [3]): 7.20

QAIEPSGNNY
pKd (HLA-A*03:01; [1]): ≤ 4.15 | pKd (HLA-A*33:01; [1]): ≤ 4.15 | pKd (HLA-A*11:01; [1]): 5.32 | pKd (HLA-A*68:01; [1]): 6.16 | pKd (HLA-A*31:01; [1]): 5.46

QMAPVSAMVR
pKd (HLA-A*03:01; [2]): 6.28 | pKd (HLA-A*33:01; [2]): 5.14 | pKd (HLA-A*11:01; [2]): 5.97 | pKd (HLA-A*68:01; [2]): 6.80 | pKd (HLA-A*31:01; [2]): 5.99

QMLTSGEYK
pKd (HLA-A*03:01; [1]): 8.16 | pKd (HLA-A*33:01; [1]): 5.14 | pKd (HLA-A*11:01; [1]): 8.44 | pKd (HLA-A*68:01; [1]): 6.58 | pKd (HLA-A*31:01; [1]): 7.55

QQVVDADSK
pKd (HLA-A*03:01; [2]): ≤ 4.55 | pKd (HLA-A*33:01; [2]): ≤ 4.11 | pKd (HLA-A*11:01; [2]): ≤ 4.58 | pKd (HLA-A*68:01; [2]): ≤ 4.18 | pKd (HLA-A*31:01; [2]): ≤ 4.11

QTCAGVIEY
pKd (HLA-A*03:01; [1]): 5.49 | pKd (HLA-A*33:01; [1]): ≤ 4.11 | pKd (HLA-A*11:01; [1]): 6.87 | pKd (HLA-A*68:01; [1]): 5.75 | pKd (HLA-A*31:01; [1]): 4.72
